Data as given in patent US6258932, “Peptides that block viral infectivity and methods of use thereof” (Tripep AB, dated 2001).
Ends that are not written are not given here.

Legend:
[1] = target: capsid protein of HIV-2 (HIV-2)
[2] = target: capsid protein of SIV (SIV)
[3] = target: HIV-1 major capsid protein (p24) (HIV-1) (UniProt P04591)
[4] = target: HIV-1 major capsid protein (p24) (HIV-1) (UniProt P04591); remark: listed apart in the source
[5] = target: HIV-1 major capsid protein (p24) (HIV-1) (UniProt P04591); remark: listed apart in the source
[6] = target: HIV-1 major capsid protein (p24) (HIV-1) (UniProt P04591); remark: listed apart in the source
[7] = target: HIV-1 major capsid protein (p24) (HIV-1) (UniProt P04591); remark: listed apart in the source
[8] = target: HIV-1 major capsid protein (p24) (HIV-1) (UniProt P04591); assay: equilibrium dialysis of 10 µM recombinant protein against 27.5 µM 14C-GPG-NH2, scintillation counting; ratio to the dialysis buffer
[9] = target: T1, HIV-1 major capsid protein (p24) (HIV-1, UniProt P04591); assay: cell-based or functional assay
[10] = target: T1, HIV-1 major capsid protein (p24); assay: cell-based or functional assay; remark: listed apart in the source

Row | Molecule | Day 10 RT, HIV-1 (OD of reverse transcriptase activity in the supernatant of infected H9 cells); HIV-1 syncytia [9] [OD] | p24 (pg/ml) in the supernatant of HIV-1 infected HUT78 cells, day 7, 100 µM peptide, reduction (%) [10] [%] | also measured
1 | Cys-Gln-Gly-NH2 (peptide) |  |  | Day 10 RT, HIV-2 (OD of reverse transcriptase activity in the supernatant of infected H9 cells) [1]: 0.296 OD; Day 10 RT, SIV (OD of reverse transcriptase activity in the supernatant of infected H9 cells) [2]: 0.11 OD
2 | Gly-Lys-Gly-NH2 (peptide) |  |  | Day 10 RT, HIV-2 (OD of reverse transcriptase activity in the supernatant of infected H9 cells) [1]: 0.147 OD; Day 10 RT, SIV (OD of reverse transcriptase activity in the supernatant of infected H9 cells) [2]: 0.099 OD
3 | Gly-Pro-Gly-NH2 (peptide) |  |  | Day 10 RT, HIV-1 (OD of reverse transcriptase activity in the supernatant of infected H9 cells); HIV-1 syncytia [3]: 0.074 OD; Day 10 RT, HIV-2 (OD of reverse transcriptase activity in the supernatant of infected H9 cells) [1]: 0.145 OD; Day 10 RT, SIV (OD of reverse transcriptase activity in the supernatant of infected H9 cells) [2]: 0.103 OD; p24 antigen in the supernatant of HIV-1 infected H9 cells, day 7, reduction (%) [4]: 100%; p24 (pg/ml) in the supernatant of HIV-1 infected HUT78 cells, day 7, reduction (%) [5]: 97%; HIV-1 p24 (pg/ml) in the supernatant of PBMC infected with AZT- or Ritonavir-resistant HIV-1 isolates, 14 days post infection, 100 µM peptide [6]: < 500 pg/mL; p24 pg/ml in the supernatant of MT-2 cells infected with HIV-1 Bru wild type or the V3 loop GPG-deleted mutants mp8 and mp10, reduction % [7]: 93%; times buffer [8]: 7.55 times buffer
4 | Ala-Cys-Gln-NH2 [ACQ-NH2] | 2.83 |  | 
5 | Ala-Arg-Val-NH2 [ARV-NH2] | 2.83 |  | 
6 | Gly-Val-Gly-NH2 [Gly-Val-Gly-NH2] |  | 25 | 
7 | Val-Gly-Gly-NH2 [Val-Gly-Gly-NH2] |  | 50 | 
8 | Lys-Gln-Gly-NH2 [Lys-Gln-Gly-NH2] |  | 99 | 
9 | Lys-Ala-Leu-NH2 [KAL-NH2] | 2.79 |  | 
10 | Gly-Pro-Gln-NH2 [GPQ-NH2] | 2.85 |  | 
11 | Ser-Leu-Gly-NH2 [Ser-Leu-Gly-NH2] |  | 99 | 
12 | Leu-Lys-Ala-NH2 [LKA-NH2] | 2.99 |  | 
13 | Lys-Ala-Arg-NH2 [KAR-NH2] | 2.93 |  | 
14 | Ile-Leu-Lys-NH2 [ILK-NH2] | 2.95 |  | 
15 | His-Lys-Ala-NH2 [HKA-NH2] | 2.79 |  | 
16 | Ala-Leu-Gly-NH2 [Ala-Leu-Gly-NH2] |  | 100 | 
17 | Ala-Ser-Gly-NH2 [Ala-Ser-Gly-NH2] |  | 25 | 
18 | Gly-His-Lys-NH2 [GHK-NH2] | 3.01 |  | 
19 | Arg-Gln-Gly-NH2 [Arg-Gln-Gly-NH2] |  | 99 | 
20 | Gly-Ala-Thr-NH2 [GAT-NH2] | 2.8 |  | 
21 | Ser-Pro-Thr-NH2 [Ser-Pro-Thr-NH2] |  | 25 | 
